Our source for the BMAX values is patent publication US20100021386A1.

The target of experiment [1] is IGF-II receptor (Long Evans rat liver) (rat). Description: saturation binding of [125I] IGF-II to pooled rat liver homogenate, filter plates; control diet, PPAR-γ agonist treated rats.
Experiment [2] has the same target. Description: saturation binding of [125I] IGF-II to pooled rat liver homogenate, filter plates; control diet, PPAR-δ agonist treated rats.
The target is the same in experiment [3]. The experiment can be described thus: saturation binding of [125I] IGF-II to pooled rat liver homogenate, filter plates; ethanol diet, vehicle.
Experiment [4] has the same target. The experiment can be described thus: saturation binding of [125I] IGF-II to pooled rat liver homogenate, filter plates; ethanol diet, PPAR-α agonist treated rats.
For experiment [5] the target is unchanged. Description: saturation binding of [125I] IGF-II to pooled rat liver homogenate, filter plates; ethanol diet, PPAR-γ agonist treated rats.
Experiment [6] shares this target. Description: saturation binding of [125I] IGF-II to pooled rat liver homogenate, filter plates; control diet, vehicle.
Experiment [7] shares this target. The experiment can be described thus: saturation binding of [125I] IGF-II to pooled rat liver homogenate, filter plates; ethanol diet, PPAR-δ agonist treated rats.
The target is the same in experiment [8]. Description: saturation binding of [125I] IGF-II to pooled rat liver homogenate, filter plates; control diet, PPAR-α agonist treated rats.

Human recombinant [125I] IGF-II, sequence (P01344 25-91): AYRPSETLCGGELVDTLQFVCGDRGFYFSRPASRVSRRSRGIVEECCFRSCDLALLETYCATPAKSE

Consider “Human recombinant [125I] IGF-II (from UniProt P01344 25-91) (ligand)”, for which the BMAX in experiment [1] worked out at 25.2; in experiment [2], 29; in experiment [3], 22.6; in experiment [4], 28.9; in experiment [5], 22.6; in experiment [6] it was 40.1. In addition, the values for the BMAX in experiment [7] and in experiment [8] were 51.5 and 40.3, respectively.
